Measurements reported in patent US11623951B2, “Antibodies to R-spondin 3” (National Health Research Institutes, priority 2017, dated 2023).

Legend:
[1] = tested on: RSPO3-Wnt signaling (hRSPO3), MDA-MB436 TCF/LEF-Luc cells; assay: TCF/LEF-Luc WNT reporter assay in MDA-MB436 cells stimulated by Wnt3a plus human RSPO3; assay type: cell-based; conditions: Wnt3a plus human RSPO3
Method: FIG. 4 is a set of graphs showing RSPO3 Abs targeting the canonical Wnt signaling and in vitro testing for inhibition of β-catenin activity. (A) A1, A2, A4, A5, A6, and A9 clones; (B) B1, B3, B4, B8, and B9 clones; and (C) Dose-response effect of elevated A4 and A6 clones on RSPO-Wnt signaling. MDA-MB436 TCF/LEF-Luc cells were incubated with a combination of Wnt3a (20 ng/mL) and RSPO3 (50 ng/mL) in the presence of 20 μg/mL anti-RSPO3 antibodies clone A1, A2, A4, A5, A6, A9 or 131R002. As controls, cells were incubated with a combination of Wnt3a and RSPO3, Wnt3a only, RSPO3 only, or with no addition. The cells were incubated for 16 hours and the luciferase activity assay was performed using One-Glo Luciferase Assay System.
(§1) FIG. 6 is a set of graph showing that anti-RSPO3 Ab inhibits WNT reporter activity stimulated by combination of Wnt3a and RSPO3. […] The cells were incubated for 16 hours. The luciferase activity assay was performed using One-Glo Luciferase Assay System.
(§2) Wnt signaling leads to β-catenin/TCF dependent transcriptional responses. MDA-MB436-TCF/LEF-Luc cells, a gift from Dr. Kelvin Kun-Chih Tsai, were employed to monitor the activity of Wnt signal transduction pathways. See, e.g., Wang et al. (2013). Gastroenterology (145): 1110-1120. In brief, MDA-MB436-TCF/LEF-Luc cells were seeded in black flat bottom 96 well culture plates (Costar) in RSPO Medium supplemented with 10% FBS and incubated overnight at 37° C., 5% CO2. 24 hours after incubation, cells were treated with anti-RSPO3 ab, 20 ng/ml WNT3a (R&D system) and RSPO ligands (Peprotech Systems) where appropriate and further incubated for 16 hours. Luciferase activity was measured using Bright-Glo Luciferase Assay System (Promega).

[2] = tested on: RSPO3-Wnt signaling (mRSPO3), MDA-MB436 TCF/LEF-Luc cells; assay: TCF/LEF-Luc WNT reporter assay in MDA-MB436 cells stimulated by Wnt3a plus murine RSPO3; assay type: cell-based
Method: as §1, §2

[3] = biological target: T1, cyclic peptides derived from hRSPO3 (Homo sapiens, UniProt Q9BXY4); assay: Epitope mapping with synthetic cyclic peptides derived from hRSPO3; assay type: binding; conditions: hB1 2 μg/ml; cyclic peptides a.a. 40-47, 44-53, 56-75, 79-94
T1 construct: four cyclic peptides (a.a. 40-47, 44-53, 56-75 and 79-94) were designed; host or cells: synthetic peptides
T1 sequence (Q9BXY4 56-75): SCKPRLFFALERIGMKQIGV
Method: FIG. 9 is a set of schematics and graphs showing epitope studies of several α-RSPO3 antibodies. (A) Various truncated RSPO3 fragments were coated on ELISA plates, followed by the addition of biotinylated hB1, an α-RSPO3 antibody, to each well. Streptavidin-HRP was then added for detection of the bound biotinylated antibody. (B) The biotinylated cyclic peptides, at 1 μg/ml, and biotinylated recombinant human RSPO3, at 100 ng/ml, were applied to NeutrAvidin pre-coated plates. To examine the binding between different cyclic peptides and hB1, hB1 at 2 μg/ml was then added to each well of the plates. To detect bound anti-RSPO3 antibodies, Goat anti-human IgG-Fc-HPR (Chemicon) was then applied to the plates.
In order to attach different biotinylated peptides or proteins on the plates, the biotinylated cyclic peptides, at 1 μg/ml, and biotinylated recombinant human RSPO3, at 100 ng/ml, were applied to NeutrAvidin pre-coated plates (Thermo Scientific Pierce). Cyclic peptides were treated with 0.1M DTT first to generate reducing form of cyclic peptides. To examine the binding between hB1 and different cyclic peptides, hB1, at 2 μg/ml, was added to each well of the plates. After incubation and washing, goat anti-human IgG-Fc-HPR (Chemicon) was then applied to plates. […] The colorimetric reaction was then stopped by 2N HCL and the optical density at 450 nm of each well was determined immediately.

B1: hB1: humanized α-RSPO3 antibody derived from murine clone B1; VH SEQ ID NO: 14, VL SEQ ID NO: 16 (antibody, V domains shown)
VH: QIQLQESGPGLVKPSESLSLTCSVTGYSITSGYYWNWIRQFPGNGLEWMGYISYDGTNNYNPSLKDRISITRDTSKNQFFLKLNSVTAADTATYYCSVLLIQYFNIWGKGTTVTVSS
VL: DIQMTQSPSSLSASVGERVTITCRTSESVNNFLAWFHQKPGKSPKLLVYHAKTLADGVSSRFSGSGSGTQYSLKINSLQPEDFGNYYCQHFWSIPWTFGGGTKLEIKR
modifications: Heavy chain variable region; Light chain variable region
inhibition of WNT reporter activity stimulated by hRSPO3 [1]: able to inhibit the WNT reporter activity | inhibition of WNT reporter activity stimulated by mRSPO3 [2]: able to inhibit the WNT reporter activity | binding epitope by cyclic peptides [3]: residues 56-75
